± gives the uncertainty stated by the source.

This data set is described as follows: amyloid nucleation score (Sup35N fusion, yeast selection) (log enrichment); library NNK1; higher = more nucleation; inactive = no reads after selection. A digest of the protocol: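 Output and input plasmid inserts were sequenced by Illumina after psi-negative yeast carrying Sup35N fused to peptides of 20 random codons had been induced 24 hours with 100 μM copper sulfate and grown 7 days at 30°C on medium lacking adenine and uracil. The nucleation score is the DiMSum log enrichment of output over input reads, centred on the mode score of non-aggregating sequences. Sequences with under 100 input reads were excluded.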
Turning to YFVSCLFILWPRQSSTRPFE, the amyloid nucleation score was determined as 8.165 ± 0.077.

Take YGGFIESLLACAKGESRNMM: the amyloid nucleation score was -0.608 ± 1.

YGGMDS returned an amyloid nucleation score of 0.132 ± 0.5.

The substance YGLEYVYVVV yielded an amyloid nucleation score of 0.277 ± 1.4.

YGMAF returned an amyloid nucleation score of -1.71 ± 2.4.

YGNWFYIFFS showed an amyloid nucleation score of 6.471 ± 0.054.

YGQIPTFHRRSQVHLCNRIW: the amyloid nucleation score worked out at 0.206 ± 1.6.

In turn, YGSAVVRQCFG returned an amyloid nucleation score of -0.114 ± 0.35.

YGSDGCKRRKGSTALAIVTY registered an amyloid nucleation score of 0.423 ± 0.41.

YGSNWLEGVGLYRGVARQSW: the amyloid nucleation score was -0.781 ± 0.43.

In turn, YGVMSLRGVRLVQDVKTRSF had an amyloid nucleation score of -0.849 ± 0.62.

Substance YHGGYGSSHMWRFVRCIKAY registered an amyloid nucleation score of 0.168 ± 0.27.

YHLERKGPAFVNFLTMGSCR registered an amyloid nucleation score of -0.908 ± 0.85.

For YHVWTFWRRLETRINFQM, the amyloid nucleation score came out at 1.13 ± 0.98.

YIFENLARAPMLQ came in with an amyloid nucleation score of 0.259 ± 0.74.

As for YIGRGNMHELFHRLLRGCVL, the amyloid nucleation score result is “inactive”.

The substance YIKGDQLVVVDTYMFRVKL registered an amyloid nucleation score of -0.991 ± 2.4.

As for YILDGESAYFVLLYEKVYFS, the amyloid nucleation score was -0.403 ± 0.53.

Substance YINLSYPIFTNSDLFGPCWH had an amyloid nucleation score of 3.45 ± 0.12.

As to YIPTCAGDWLQFNYYNLMCW, the amyloid nucleation score worked out at 0.149 ± 0.38.

YIYRDTYLRTPKLGSHMYCL: the amyloid nucleation score entry was “inactive”.

On to YKAERVKSVRTITPRVTLLW, for which the amyloid nucleation score was -0.331 ± 0.61.

YKKRMLSLWYYGAGIQHRAL registered an amyloid nucleation score of 0.412 ± 0.43.

Regarding YKLFGFFGRHPVNWYV, the amyloid nucleation score was found to be 0.344 ± 0.51.

Take YKMYWISVAVLKRYNLLHQS: the amyloid nucleation score is -0.111 ± 0.44.

In turn, YKNTCQLYPRVFTPWWYERM yielded an amyloid nucleation score of 0.173 ± 0.67.

The substance YKSLDGF came in with an amyloid nucleation score of 0.704 ± 0.93.

YKWGWAVYHIGHGCRVWRWT had an amyloid nucleation score of 1.49 ± 0.4.

Take YKYFCGYKLSVEDLLLSVYQ: the amyloid nucleation score was 0.188 ± 0.27.

As for YLCPFIYMAHSGSSDVCLIV, the amyloid nucleation score stood at 3.38 ± 0.11.

On to YLCSSVPLSEHNLILSITWD, for which the amyloid nucleation score entry is “inactive”.

For YLDCIYRGKIISIHTGSGIL, the amyloid nucleation score was -0.449 ± 0.29.

As for YLDLFTGSSH, the amyloid nucleation score was -0.368 ± 0.27.

As to YLDSILYMGLTDLVWQVGTT, the amyloid nucleation score is -0.334 ± 0.43.

The substance YLEVPMKFFEFFGFRPVAFV registered an amyloid nucleation score of -0.121 ± 0.54.

Take YLFMNRGTVSWRSVYDRV: the amyloid nucleation score came out at 0.104 ± 0.42.

With YLGWDRNRDYEWAIDASRAN, the amyloid nucleation score entry was “inactive”.

With YLIFKSFK, the amyloid nucleation score is 1.25 ± 0.61.

In the case of YLILLWWTNCRARAKERVDR, the amyloid nucleation score is -0.155 ± 1.1.

For YLIWLLGFANILYHYTL, the amyloid nucleation score result was “inactive”.

Substance YLKGVG came in with an amyloid nucleation score of 0.104 ± 0.74.

In the case of YLLLLDGGPSPVLAIRHVNG, the amyloid nucleation score is -0.989 ± 0.76.

Substance YLLQSAIFGAGVHT returned an amyloid nucleation score of 0.672 ± 0.39.

YLMKRSWTGMIGLGTQVKSS yielded an amyloid nucleation score of 0.9 ± 0.58.

YLNSFLYVMLFLVPDRSVTR returned an amyloid nucleation score of 6.18 ± 0.068.

Regarding YLNTLRR, the amyloid nucleation score result was “inactive”.

YLQIWRLSRRSILL: the amyloid nucleation score result was “inactive”.

In turn, YLRRHQRNLPEQCCEAGINV gave an amyloid nucleation score of -1.37 ± 1.5.

With YLRVNAHMLDYSF, the amyloid nucleation score was -0.513 ± 1.

In the case of YLSFSSAHDDIEWVGISCR, the amyloid nucleation score result is “inactive”.

Take YLTQLV: the amyloid nucleation score was found to be 0.528 ± 0.38.

Substance YLVMRMMVLRMAKPKIVGRD displayed an amyloid nucleation score of 5.524 ± 0.051.

Substance YLVTGVGYGGCNIRLWE had an amyloid nucleation score of 0.355 ± 0.83.

In the case of YMKMMYAIYCLWLRHYSMLF, the amyloid nucleation score entry was “inactive”.

YMRGGQDFYYVQDIVVFLLL registered an amyloid nucleation score of 4.24 ± 0.094.

Take YMVHMK: the amyloid nucleation score was determined as 0.121 ± 0.76.

In the case of YMYEMGICFELDDTHEG, the amyloid nucleation score worked out at 0.608 ± 0.55.

In turn, YNLWIGLCRIMEEVILGGT registered an amyloid nucleation score of -0.863 ± 0.61.

YNRLKSIV: the amyloid nucleation score is 1.51 ± 0.72.

Turning to YNVIWSMVGEYLHSSCYGPV, the amyloid nucleation score result was “inactive”.

As to YNVKVMCSVQSEMRGIT, the amyloid nucleation score came out at 0.465 ± 0.68.

Consider YNVSHLIRV, for which the amyloid nucleation score is -0.959 ± 0.26.

Regarding YPCNLFCMMTLLNYLGSSVA, the amyloid nucleation score is 6.49 ± 0.074.

Regarding YQDAGVLGRLPHLFTNGSFT, the amyloid nucleation score amounted to 0.021 ± 0.93.

As to YQDFAGDARFGEIRWYYPKS, the amyloid nucleation score worked out at 0.125 ± 0.41.

Take YQDVVDSDD: the amyloid nucleation score was -0.762 ± 0.64.

YQSFLASACSSEPIRFSKQH yielded an amyloid nucleation score of 0.915 ± 0.66.

YRFRWRNWSMWVSHKAHKAS: the amyloid nucleation score was 0.851 ± 0.74.

YRLILVANVQMDHWES came in with an amyloid nucleation score of -0.38 ± 0.44.

Substance YRVHVCQEWMGSWCCGCVKG yielded an amyloid nucleation score of 2.54 ± 0.2.

YRVSNVNFSFATFFTHAPVR had an amyloid nucleation score of 1.76 ± 0.16.

For YRVVACMGCALRLVWLARYR, the amyloid nucleation score is -0.31 ± 0.3.

Turning to YSCMGECFTC, the amyloid nucleation score is 7.89 ± 0.067.

With YSFRAIDTQLTQTLTWLLIR, the amyloid nucleation score was -0.563 ± 0.53.

Take YSGRRQETNVGRLRSNWGGL: the amyloid nucleation score is -0.568 ± 0.39.

The substance YSGWEEITVFFSDARV yielded an amyloid nucleation score of -0.115 ± 1.3.

The substance YSHFEQYMDNFNIMNYDYRD gave an amyloid nucleation score of -0.879 ± 1.2.

As for YSIFTIKGRDCKLFITNNVS, the amyloid nucleation score was 7.468 ± 0.045.

The substance YSLFAGLREVSMDVCNDV displayed an amyloid nucleation score of 0.39 ± 0.5.

Turning to YSLLY, the amyloid nucleation score is -0.652 ± 0.66.

With YSLNFYAMPRSSI, the amyloid nucleation score was determined as 3.76 ± 0.1.

As to YSLTYVNSYLFGINDCKGPD, the amyloid nucleation score came to 8.164 ± 0.054.

YSMLCLKYL: the amyloid nucleation score result is “inactive”.

Substance YSNFFQHRTWMIDCSFPTGL displayed an amyloid nucleation score of 0.147 ± 0.37.

As for YSNLIDGS, the amyloid nucleation score was 7.378 ± 0.047.

In turn, YSNLYFSLNNGNPVLKGYNG yielded an amyloid nucleation score of -0.17 ± 0.65.

In turn, YSNSGMGNV had an amyloid nucleation score of 0.568 ± 0.21.

Substance YSRLSCWYYAPGVSLGVIKW came in with an amyloid nucleation score of 0.483 ± 0.48.

The substance YSRMQVAIYMYLVE registered an amyloid nucleation score of 3.19 ± 0.17.

Take YSRSVGYRRYFI: the amyloid nucleation score entry was “inactive”.

Turning to YSSGKELTGLLDKKFIIGLD, the amyloid nucleation score was -0.186 ± 0.39.

The substance YSTLRGFNYVFLKYIVK yielded an amyloid nucleation score of 0.724 ± 0.54.

For the substance YSVMSSRSGIVGSWVHRGVQ, the amyloid nucleation score came to 0.38 ± 0.32.

Turning to YSVVRCRVANC, the amyloid nucleation score turned out to be 0.263 ± 0.61.

Turning to YSYKCGGVRTSTSFLSMLFV, the amyloid nucleation score turned out to be 0.811 ± 0.18.

YSYMTYRALFVVTSCLSRWG displayed an amyloid nucleation score of 1.11 ± 0.66.

Turning to YTCYIVKGLVVLTVACGG, the amyloid nucleation score is -0.225 ± 0.98.

In the case of YTDFRQSLLTVT, the amyloid nucleation score is 0.07 ± 0.43.

Substance YTEIMGL returned an amyloid nucleation score of -0.046 ± 0.31.

YTFGDAGHPESAMVTCRAYS yielded an amyloid nucleation score of -0.007 ± 0.33.

Turning to YTGSL, the amyloid nucleation score is -0.498 ± 0.63.

The substance YTRSVL returned an amyloid nucleation score of 0.2 ± 0.23.

The substance YTVVLEKTKVMYTVAPPRSL came in with an amyloid nucleation score of -1.04 ± 2.4.

YTWIEHAWSS had an amyloid nucleation score of -0.062 ± 0.55.

YTYTQTFLV had an amyloid nucleation score of -0.255 ± 0.47.

Substance YTYVSMPGR returned an amyloid nucleation score of -0.358 ± 0.34.

The substance YVAISHGQTPSLYL had an amyloid nucleation score of -0.827 ± 1.5.

Regarding YVCFRVDTCRLVCVRRWLNY, the amyloid nucleation score amounted to 0.706 ± 0.51.

As for YVESGTFTDPRFWVSFAVCF, the amyloid nucleation score amounted to 0.791 ± 0.54.

In the case of YVEVQVIKWVMKSEVHRGAW, the amyloid nucleation score was found to be 1.27 ± 0.48.

Turning to YVFLRFVSVCSYN, the amyloid nucleation score was determined as 4.9 ± 0.05.

In turn, YVFVWMRYTSFWVMNTFYSS yielded an amyloid nucleation score of 0.193 ± 0.46.

With YVGSDLFYRCQKNKYHRHSL, the amyloid nucleation score is -0.215 ± 0.97.

As to YVGSRSAVNIGIICGSRLNE, the amyloid nucleation score is -0.739 ± 1.5.

The substance YVIMWGGLTLYLWGCRKWWE registered an amyloid nucleation score of -0.103 ± 0.43.

In turn, YVIRFVKCR gave an amyloid nucleation score of 2.23 ± 0.55.

The substance YVLWNRASIAPYIQHGLRVL registered an amyloid nucleation score of 1.19 ± 0.19.

As for YVMAESSASNDQAVGNWRGR, the amyloid nucleation score is -0.643 ± 0.97.

Substance YVPPSMMLNGGDPEYSVGLK registered an amyloid nucleation score of 0.082 ± 0.89.

YVQFYGWRTWDLYWYLEWVV: the amyloid nucleation score was -1.07 ± 0.8.

The substance YVRFYLFNFVGLRQKFMI gave an amyloid nucleation score of 2.74 ± 0.17.

The substance YVRMACMLGLHSRYWMHRVV came in with an amyloid nucleation score of -0.267 ± 0.6.

Consider YVSAGRCKYDDLPTRV, for which the amyloid nucleation score worked out at 0.133 ± 0.67.

Substance YVVCKGIRSSSWDSWVSKR came in with an amyloid nucleation score of -0.393 ± 0.28.

YVVCYFDNLFLSSISLSLRA displayed an amyloid nucleation score of 8.521 ± 0.058.

The substance YWAIVW showed an amyloid nucleation score of -0.128 ± 0.39.

The substance YWEGWGKTRFKCNGSRSRAG showed an amyloid nucleation score of -1.01 ± 1.3.

YWFFSIMSSYSVNTQM showed an amyloid nucleation score of 1.64 ± 0.8.

The substance YWLNNYYVVGNIS displayed an amyloid nucleation score of 2.57 ± 0.25.

On to YYESRNWSILFRLINMF, for which the amyloid nucleation score was -0.078 ± 0.46.

As for YYFRHMLKDNHLVIV, the amyloid nucleation score entry is “inactive”.

For YYGVWVDREHWL, the amyloid nucleation score turned out to be 0.628 ± 0.48.

Regarding YYISLFTEDMSVRRVNQTCF, the amyloid nucleation score is -2.03 ± 0.96.

Consider YYLDGTGLWVNCVRMARGCG, for which the amyloid nucleation score came to 1.16 ± 0.78.

In the case of YYLEGSNALYIKVDRILRLL, the amyloid nucleation score is -0.187 ± 0.54.

Substance YYLSCNDSKGYSMRQFMYDV registered an amyloid nucleation score of -0.139 ± 0.81.

YYLSLGLKLMSMVPVKSTY: the amyloid nucleation score result was “inactive”.

On to YYMMTKRGFNMILCCCCRCF, for which the amyloid nucleation score worked out at 0.667 ± 0.2.

As to YYNNLRVSSYQSKFPIMAMF, the amyloid nucleation score result is “inactive”.

For the substance YYPNPMQPW, the amyloid nucleation score was -0.526 ± 0.47.

The values are drawn from the supplement of paper PMC12042874.
